Substitutions are numbered along the chain they refer to.
B1: 22B5 wild type IgG1 (antibody, V domains shown)
VH: QLQLQESGPGLVKPSETLSLTCTVSGGSISSSSYWGWIRQPPGKGLEWIGSIYYSGRNYNNPSLKSRVTISVDTSKNQFSLKLSSVTAADTAVYYCARHYYGSGSSYYYYDLDVWGQGTTVTVSS
VL: EIVLTQSPATLSLSPGERATLSCRASQSVSSYLAWYQQKPGQAPRLLIYDASNRATGIPARFSGSGSGTDFTLTISSLEPEDFAVYYCQQRSNWPLTFGGGTKVEIK
notes: Human IgG1 with wild type Fc (no DLE mutations); also called 22B5 wt IgG1; wt 22B5 IgG1
B2: 22B5 IgG4 (antibody, V domains shown)
VH: B1 VH
VL: B1 VL
B3: 1D9/DLE (antibody, V domains shown)
VH: QVQLVESGGGVVQPGRSLRLSCAASGFPFSTYAMHWVRQAPGKGLEWVAVISYDGSNKYYADSVKGRFTISRDNSKNTLYLQMNSLRAEDTAVYYCARESPPIYYYYGMDVWGQGTTVTVSS
VL: B1 VL with L96R, G100Q
notes: also called 1D9 IgG1 DLE; 1D9 G1 DLE
B4: 22B5 IgG2 (antibody, V domains shown)
VH: B1 VH
VL: B1 VL
B5: 1D9 (antibody, IgG1, V domains shown)
VH: B3 VH
VL: B1 VL with L96R, G100Q
notes: also called 1D9 G1; I D9
B6: 2D2/DLE (antibody, IgG1, V domains shown)
VH: QVQLVESGGGVVQPGRSLRLSCAASGFTFSSYAMHWVRQAPGKGLEWVAVISFDGSTKYYADSVKGRFTISRDNSKNTLDLQMNSLRAEDTALYYCAREYWGTYYYGTDVWGQGTTVIVSS
VL: B1 VL with S30N, L96R, G100Q
notes: Constant regions: see the note of 1D9/DLE; also called 2D2 IgG1 DLE

Columns and labels:
[1] = target: T1, human integrin α5β1 on cells (endogenous, HUVEC; tumor or endothelial-expressed) (human, UniProt P08648 42-1049; P05556 21-798); assay: cell-based or functional assay
T1 sequence (P08648 42-1049, chain 1 of 2): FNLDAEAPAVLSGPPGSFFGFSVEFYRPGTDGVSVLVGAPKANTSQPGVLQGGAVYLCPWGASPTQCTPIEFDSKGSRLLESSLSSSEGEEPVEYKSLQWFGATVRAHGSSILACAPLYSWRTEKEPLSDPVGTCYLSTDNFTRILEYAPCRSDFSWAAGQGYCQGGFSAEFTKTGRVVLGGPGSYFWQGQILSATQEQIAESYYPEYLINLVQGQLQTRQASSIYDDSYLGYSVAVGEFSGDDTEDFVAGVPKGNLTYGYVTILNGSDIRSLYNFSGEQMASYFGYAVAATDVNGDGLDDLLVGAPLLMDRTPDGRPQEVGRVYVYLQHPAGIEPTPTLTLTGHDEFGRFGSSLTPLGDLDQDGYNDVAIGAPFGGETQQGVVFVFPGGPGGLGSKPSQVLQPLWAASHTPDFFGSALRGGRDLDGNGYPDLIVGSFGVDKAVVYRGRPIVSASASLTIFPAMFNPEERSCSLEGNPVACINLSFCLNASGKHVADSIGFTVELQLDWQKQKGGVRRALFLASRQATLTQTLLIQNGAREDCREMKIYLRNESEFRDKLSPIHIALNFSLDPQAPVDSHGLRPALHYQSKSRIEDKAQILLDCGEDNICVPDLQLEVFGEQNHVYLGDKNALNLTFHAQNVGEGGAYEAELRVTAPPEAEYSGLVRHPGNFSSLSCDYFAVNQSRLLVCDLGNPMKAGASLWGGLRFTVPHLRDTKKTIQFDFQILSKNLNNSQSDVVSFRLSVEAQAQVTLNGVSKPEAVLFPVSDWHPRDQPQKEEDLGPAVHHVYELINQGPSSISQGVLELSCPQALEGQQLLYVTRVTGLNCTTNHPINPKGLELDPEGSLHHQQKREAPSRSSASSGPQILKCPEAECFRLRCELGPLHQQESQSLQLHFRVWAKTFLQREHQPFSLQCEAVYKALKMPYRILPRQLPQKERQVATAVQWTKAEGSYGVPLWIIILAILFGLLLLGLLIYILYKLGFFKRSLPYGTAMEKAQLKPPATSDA
T1 sequence (P05556 21-798, chain 2 of 2): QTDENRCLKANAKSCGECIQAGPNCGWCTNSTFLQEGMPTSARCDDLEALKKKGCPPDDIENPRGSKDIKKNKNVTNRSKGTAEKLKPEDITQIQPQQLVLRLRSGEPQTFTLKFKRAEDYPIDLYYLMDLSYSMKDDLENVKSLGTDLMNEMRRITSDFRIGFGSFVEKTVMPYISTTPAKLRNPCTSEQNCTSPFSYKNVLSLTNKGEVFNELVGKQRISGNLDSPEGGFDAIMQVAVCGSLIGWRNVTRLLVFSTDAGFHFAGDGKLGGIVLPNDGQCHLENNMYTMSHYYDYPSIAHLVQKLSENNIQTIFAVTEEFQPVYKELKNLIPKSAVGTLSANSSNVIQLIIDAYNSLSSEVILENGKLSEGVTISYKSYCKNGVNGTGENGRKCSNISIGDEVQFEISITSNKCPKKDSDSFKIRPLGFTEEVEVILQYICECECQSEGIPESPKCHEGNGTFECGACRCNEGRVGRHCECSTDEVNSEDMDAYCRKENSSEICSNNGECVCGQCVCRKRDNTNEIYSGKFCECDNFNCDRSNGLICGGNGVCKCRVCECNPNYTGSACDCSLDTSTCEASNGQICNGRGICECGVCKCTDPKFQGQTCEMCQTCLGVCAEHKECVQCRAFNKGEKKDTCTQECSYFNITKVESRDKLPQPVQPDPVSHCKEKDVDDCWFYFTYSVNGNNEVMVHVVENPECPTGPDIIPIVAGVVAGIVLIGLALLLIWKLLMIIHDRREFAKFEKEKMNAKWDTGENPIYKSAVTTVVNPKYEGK

[2] = target: T1, human integrin α5β1 on cells …; assay: FACS on HUVEC (endogenous human α5β1), GeoMean against mAb concentration, fitted; experiment 030207
[3] = target: T1, human integrin α5β1 on cells …; assay: cell-based or functional assay; remark: listed apart in the source
[4] = target: T1, human integrin α5β1 on cells …; assay: FACS on HUVEC (endogenous human α5β1), GeoMean against mAb concentration, fitted; experiment 031307
Method: The 22B5/DLE, 24C7/DLE, 1 D9/DLE, and 2D2/DLE antibodies were tested for their binding affinity to cell surface integrin α5 using a FACS assay, employing endogenous human integrin α5β1 expressing cells (HUVEC). Briefly, the cells were detached using trypsin-EDTA and washed with cold PBS. After being aliquoted into 96-well plates, the cells were blocked by serum and incubated with different concentrations of specific mAb for 1 hour at 4° C. Subsequently, the cells were washed and incubated with an anti-human κ secondary antibody conjugated with the R-PE fluorophore and analyzed using a FACSCalibur flow cytometer. 10,000 events were collected for each sample without applying any gating. For KD determination, the Geometric Mean of each sample histogram was calculated and plotted as a function of the mAb concentration. KD was calculated after fitting to a two-state equilibrium model.

| Binder | ADCC EC50, human PBMCs [1] [nM] | Kd [2] [nM] | IC50, inhibition of HUVEC adhesion to fibronectin (fluorescence 485/535 nM) [3] [nM] | Kd [4] [nM] |
| --- | --- | --- | --- | --- |
| B1 | 0.23 | 1.95 | 0.43 |  |
| B2 |  |  | 0.57 |  |
| B3 |  | 1.68 |  | 1.49 |
| B4 |  |  | 0.37 |  |
| B5 |  | 1.69 |  |  |
| B6 |  | 8.78 |  | 7.32 |

Source: patent US20100330078A1 (Pfizer, published 2010)
